The results in this text go back to patent US20190241670A1 (BIOCON, published 2019).

The target of this experiment is T1, rhCD6FC/Chimera (R and D systems) (human, UniProt P30203 25-398).
T1 construct: Bought reagent (R and D systems), coated on the ELISA plate; also called CD6 receptor; Fc part of the bought chimera not given
T1 sequence (looked up): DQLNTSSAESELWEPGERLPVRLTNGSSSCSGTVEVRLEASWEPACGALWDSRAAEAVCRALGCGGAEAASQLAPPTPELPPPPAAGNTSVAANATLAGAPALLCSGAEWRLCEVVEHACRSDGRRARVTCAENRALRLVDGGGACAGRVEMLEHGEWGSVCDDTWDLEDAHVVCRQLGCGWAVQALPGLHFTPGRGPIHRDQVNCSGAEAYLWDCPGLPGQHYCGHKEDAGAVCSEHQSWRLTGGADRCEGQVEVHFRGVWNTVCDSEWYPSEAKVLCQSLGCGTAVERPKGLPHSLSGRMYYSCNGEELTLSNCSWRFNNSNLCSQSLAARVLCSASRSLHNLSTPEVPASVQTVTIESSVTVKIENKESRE
Put plainly: ELISA, CD6-Fc coated plate, fixed T1h with varying ALCAM-Fc as competitor. As for the experimental part: When varying concentrations of ALCAM-Fc was incubated along with a fixed concentration of T1h in a CD6-Fc coated ELISA plate, T1h was detected at all concentration of ALCAM-Fc.
The rhCD6FC/Chimera (R and D systems) (100 ≈g/ml) was diluted in coating buffer and 100 ≈l was added to each well of a 96 well Nunc-Maxisorp plate. The plate was then incubated at 4éC overnight. The Plate was washed thrice with PBS Tween 20. Subsequently, 200 ≈l of blocking solution (2% BSA+0.1% Tween 20 in 1×PBS) was added and incubated for 1 hour at 37éC. After incubation, the plate was washed again with PBS Tween thrice, followed by the addition of T1h monoclonal antibody (0.2 mg/ml) and .rhA LCAMFc (R and D systems) at varying concentrations. This was then incubated for an hour at 37éC. The plate was washed 3 times subsequently with PBS Tween. To the wells 200 ≈l of anti human IgG (Fab)₂ ALP (1:20000) diluted in blocking buffer was added and incubated for 1 hour at 37éC. The plate was washed thrice with PBS tween and 200 ≈l of p-Nitrophenyl Phosphate (PNPP) substrate is added to each well and incubated at 37éC till color develops around 15 minutes. Reading was taken at 405 nm using a BIOTEK Micro Plate Reader.
(In general: An ELISA detects its analyte on a solid surface through an enzyme-linked reagent.)

B1: humanized IgG1 isotype anti-CD6 monoclonal antibody (T1h) (antibody, V domains shown)
VH: EVQLVESGGGLVKPGGSLKLSCAASGFKFSRYAMSWVRQAPGKRLEWVATISSGGSYIYYPDSVKGRFTISRDNVKNTLYLQMSSLRSEDTAMYYCARRDYDLDYFDSWGQGTLVTVSS
VL: DIQMTQSPSSLSASVGDRVTITCKASRDIRSYLTWYQQKPGKAPKTLIYYATSLADGVPSRFSGSGSGQDYSLTISSLESDDTATYYCLQHGESPFTLGSGTKLEIK
notes: also called humanized IOR-T1; Itolizumab
As for B1, the binding result is given as “binds”.
